# Where a chain is given by its changes, count along the chain named. Names may count otherwise.
# B1: CE115HA000 Q50I one-arm antibody (antibody, human IgG1, kappa, L234A L235A, N297A, name in Kabat numbering)
# heavy: QVQLVESGGGVVQPGRSLRLSCAASGFTFSNAWMHWVRQAPGKGLEWVAIIKAKSNNYATYYAESVKGRFTISRDDSKNSLYLQMNSLKTEDTAVYYCRYVHYGAYYGVDAWGQGTTVTVSSASTKGPSVFPLAPSSKSTSGGTAALGCLVKDYFPEPVTVSWNSGALTSGVHTFPAVLQSSGLYSLSSVVTVPSSSLGTQTYICNVNHKPSNTKVDKKVEPKSCDKTHTCPPCPAPEAAGGPSVFLFPPKPKDTLMISRTPEVTCVVVDVSHEDPEVKFNWYVDGVEVHNAKTKPREEQYASTYRVVSVLTVLHQDWLNGKEYKCKVSNKALPAPIEKTISKAKGQPREPQVYTLPPSRCELTKNQVSLSCAVKGFYPSDIAVEWESNGQPENNYKTTPPVLDSDGSFFLVSKLTVDKSRWQQGNVFSCSVMHEALHNHYTQKSLSLSPDYKDDDDK
# chain: EPKSSDKTHTCPPCPAPELLGGPSVFLFPPKPKDTLMISRTPEVTCVVVDVSHEDPEVKFNWYVDGVEVHNAKTKPREEQYNSTYRVVSVLTVLHQDWLNGKEYKCKVSNKALPAPIEKTISKAKGQPREPQVCTLPPSRDELTKNQVSLWCLVKGFYPSDIAVEWESNGQPENNYKTTPPVLDSDGSFFLYSKLTVDKSRWQQGNVFSCSVMHEALHNRYTQKSLSLSP
# light: DIVMTQSPLSLPVTPGEPASISCRSSQSLVHSNRNTYLHWYQQKPGQAPRLLIYKVSNRFSGVPDRFSGSGSGTDFTLKISRVEAEDVGVYYCGQGTQVPYTFGQGTKLEIKRTVAAPSVFIFPPSDEQLKSGTASVVCLLNNFYPREAKVQWKVDNALQSGNSQESVTEQDSKDSTYSLSSTLTLSKADYEKHKVYACEVTHQGLSSPVTKSFNRGEC
# B2: CE115HA000 R19T one-arm antibody (antibody, human IgG1, kappa, L234A L235A, N297A, name in Kabat numbering)
# heavy: B1 heavy with R19T, I50Q
# chain: B1 chain
# light: B1 light
# B3: CE115HA000 Q105E one-arm antibody (antibody, human IgG1, kappa, L234A L235A, N297A, name in Kabat numbering)
# heavy: B1 heavy with I50Q, Q114E
# chain: B1 chain
# light: B1 light
# B4: CE115HA000 R16Q one-arm antibody (antibody, human IgG1, kappa, L234A L235A, N297A, name in Kabat numbering)
# heavy: B1 heavy with R16Q, I50Q
# chain: B1 chain
# light: B1 light
# B5: CE115HA000 S30D one-arm antibody (antibody, human IgG1, kappa, L234A L235A, N297A, name in Kabat numbering)
# heavy: B1 heavy with S30D, I50Q
# chain: B1 chain
# light: B1 light
# B6: CE115HA000 Q50Y one-arm antibody (antibody, human IgG1, kappa, L234A L235A, N297A, name in Kabat numbering)
# heavy: B1 heavy with I50Y
# chain: B1 chain
# light: B1 light
# B7: CE115HA000 Q50S one-arm antibody (antibody, human IgG1, kappa, L234A L235A, N297A, name in Kabat numbering)
# heavy: B1 heavy with I50S
# chain: B1 chain
# light: B1 light
# B8: CE115HA000 Q50K one-arm antibody (antibody, human IgG1, kappa, L234A L235A, N297A, name in Kabat numbering)
# heavy: B1 heavy with I50K
# chain: B1 chain
# light: B1 light
# B9: CE115HA000 R16E one-arm antibody (antibody, human IgG1, kappa, L234A L235A, N297A, name in Kabat numbering)
# heavy: B1 heavy with R16E, I50Q
# chain: B1 chain
# light: B1 light
# B10: CE115HA000 Q50L one-arm antibody (antibody, human IgG1, kappa, L234A L235A, N297A, name in Kabat numbering)
# heavy: B1 heavy with I50L
# chain: B1 chain
# light: B1 light
# Target: T1, CD3ε homodimer protein (human, UniProt P07766 23-126, limits assumed, sulfo-tag or biotin label in the ECL assays; amine-coupled to the chip in SPR)
# T1 construct: also called human CD3ε homodimer protein; CD3 (CD3ε)
# T1 sequence (P07766 23-126 limits assumed): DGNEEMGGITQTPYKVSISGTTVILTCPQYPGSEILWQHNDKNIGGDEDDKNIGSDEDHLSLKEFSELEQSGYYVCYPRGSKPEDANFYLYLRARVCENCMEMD
# Assay: SPR Biacore T200; CD3ε homodimer on CM4 chip;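 further: Single-residue variant antibodies injected as analyte over CD3ε homodimer immobilized by amine coupling, run at 25 °C in HBS-EP+ buffer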
row,Binder,ratio of amounts bound Z=Y/X (altered form / CE115HA000)
1,B1,0.4
2,B2,0.8
3,B3,0.94
4,B4,0
5,B5,0.86
6,B6,0.25
7,B7,0.24
8,B8,0.33
9,B9,0.88
10,B10,0.23

# From patent US20260049138A1 (Chugai, published 2026)
